{
  "source": "patent US8492521B2",
  "about": "“Oxidative stress responsive apoptosis inducing protein eIF5A” (priority 2008, dated 2013)",
  "key": {"[1]": {"assay": "Isoelectric point by two-dimensional gel electrophoresis and Western blotting", "type": "physicochemical", "conditions": "two-dimensional gel electrophoresis, tagged recombinant protein", "procedure": "Quail muscle cells were transfected with eIF5A-myc-His vector and myc- and His-tagged recombinant eIF5A protein was collected from the cytoplasm of the transfected cells. Similarly, quail muscle cells were trasfected with the eIF5A-FLAG-His vector, the cells were incubated in hypoxia/reoxygenation-conditioned PBS (RCP), and a FLAG- and His-tagged recombinant eIF5A protein was collected from the culture supernatant. The proteins were treated with Ni-NTA Purification System (Invitrogen), and after that gel filtration was performed with phosphate buffer containing 0.15 M NaCl (pH 7.4) using Superdex 200™ 10-300GL (GE Healthcare, 1.0×30 cm, bed capacity 24 mL) to purify the myc- and FLAG-tagged recombinant eIF5A proteins. The first dimensional isoelectric focusing was performed with Immobiline DryStrip (pH 4 to 7, GE Healthcare) which had been allowed to swell overnight with a sample dissolved in 7 M urea, 2 M thiourea, 4% CHAPS, 65 mM dithioerythritol [DTE], 2% IPG buffer pH 4 to 7 (GE Healthcare) and bromophenol blue [BPB]. The electrophoresis was performed at a voltage of 30 V for 7 hours, at 60V for 7 hours, at 60 to 200 V for 30 min, at 200 to 500 V for 30 min, at 500 to 1000 V for 30 min, at 1000 to 8000 V for 30 min, and at 8000 V for 2 hours (19.4 kVh in total). The second dimensional SDS-PAGE was performed with a gel (concentrated gel 4% acrylamide, 2.6% piperazine diacrylamide [PDA], separating gel 12% acrylamide, 2.6% PDA) and the electrophoresis was performed at 12 mA for 2 hours. The gel was transferred to a PVDF membrane, and then the myc- and FLAG-tagged recombinant eIF5A proteins were analyzed by Western blotting. First, the proteins were analyzed using anti-myc monoclonal antibody (Invitrogen), biotinylated anti-mouse IgG antibody and Vectastain ABC-AP Kit (Vector) and then detected with alkaline phosphatase and chemiluminescence. Then, the proteins were analyzed using anti-FLAG monoclonal antibody (M2, Sigma) and horseradish peroxidase (HRP)-labeled anti-mouse IgG antibody and detected with Konica Immunostain HRP-1000 Kit (Konica Corporation).\n(1) As thioredoxin has been known to act as antioxidant by reducing other proteins and play a protective role against oxidative stress-induced cell injury, eIF5A was considered to be a candidate of an apoptosis inducing humoral factor. eIF5A is the only protein known to contain a unique amino acid hypusine, which is formed post-translationally by two-steps of an enzymatic reaction. eIF5A has been known to be localized mainly in the cytoplasm under normal conditions where hypusinated eIF5A facilitates translation of mRNAs involved in cell proliferation. However, no study to date has reported that eIF5A can be released extracellularly and act as an apoptosis-inducing factor. To confirm that eIF5A is actually released from cardiac myocytes in response to hypoxia/reoxygenation and the released eIF5A can induce apoptosis of cardiac myocytes, quail muscle cells (CRL-1962, ATCC) were transfected with an expression vector containing the FLAG- and His-tagged human eIF5A gene, incubated with hypoxic PBS, and then incubated with normoxic PBS. The reoxygenation-conditioned PBS (RCP) was collected, concentrated, and purified using Ni-NTA Purification System (Invitrogen), and recombinant protein ([RCP] re-eIF5A) was extracted by gel filtration. (2) Similarly, recombinant human eIF5A ([cytosolic] re-eIF5A) was extracted from cytosolic fractions of the untreated transfected cells. (3) After these recombinant eIF5A proteins were separated by two-dimensional electrophoresis, the resultant was analyzed by Western blotting with anti-FLAG M2 mAb (Sigma) (FIG. 2b). […] Specifically, spots having higher pI values, such as hypusinated eIF5A (spots B and B′ in FIG. 2b), and spots having lower pI values, such as unhypusinated eIF5A (spots A and A′ in FIG. 2b) were identified. There was no detectable spots of deoxyhypusinated intermediate (references Taylor, C. A., et al. Exp. Cell Res. 313, 437-449). […]"}, "[2]": {"test_system": "cultured cardiac myocytes", "assay": "Induction of apoptosis of cultured cardiac myocytes by recombinant eIF5A proteins (TUNEL / cardiac myosin double staining)", "type": "cell-based, rat", "conditions": "recombinant protein 10 μg/mL"}, "[3]": {"test_system": "cardiac myocytes", "assay": "Effect of PARP-1 inhibitor and caspase inhibitor on apoptosis of cardiac myocytes induced by recombinant eIF5A (RCP) (TUNEL)", "type": "cell-based, rat", "conditions": "inhibitor added 1 hour before recombinant eIF5A (RCP), 3-aminobenzamide 2 mM, Z-VAD.fmk 100 μM, TUNEL at 72 hours"}},
  "note": "Where a SMILES comes first, the peptide text is derived from it. The star is where a group is joined. Cbz = O=C(OCc1ccccc1)*; CH2F = FC*",
  "data": [
    {"molecule": "cytosolic unhypusinated eIF5A: unhypusinated form of conventionally known cytosolic eIF5A, spot A in two-dimensional electrophoresis [reference compound]", "values": [
      {"measurement": "isoelectric point", "setting": "[1]", "value": "approx. 5.4"},
      {"measurement": "isoelectric point", "setting": "[1]; listed as spot A", "value": 5.4}
    ]},
    {"molecule": "recombinant mutant eIF5A (K50A) derived from RCP: K50A mutant eIF5A secreted into reoxygenation-conditioned PBS by transfected quail muscle cells", "values": [
      {"measurement": "induction of apoptosis of cultured cardiac myocytes (TUNEL and cardiac myosin double staining)", "setting": "[2]", "value": "only partially induced apoptosis"}
    ]},
    {"molecule": "cytosolic (mostly unhypusinated) eIF5A: recombinant human eIF5A extracted from cytosolic fractions of untreated transfected cells [reference compound]", "values": [
      {"measurement": "induction of apoptosis of cultured cardiac myocytes (TUNEL and cardiac myosin double staining)", "setting": "[2]", "value": "almost no cardiac myocytes underwent apoptosis"}
    ]},
    {"molecule": "NC(=O)c1cccc(N)c1", "note": "[3-aminobenzamide]", "values": [
      {"measurement": "inhibition at 2000 µM", "setting": "[3]; Rattus norvegicus, read-out: inhibition of apoptosis induction by recombinant eIF5A (RCP)", "value": "~30", "unit": "%"}
    ]},
    {"molecule": "cytosolic hypusinated eIF5A: hypusinated form of conventionally known cytosolic eIF5A, spot B in two-dimensional electrophoresis [reference compound]", "values": [
      {"measurement": "isoelectric point", "setting": "[1]", "value": "approx. 5.5"},
      {"measurement": "isoelectric point", "setting": "[1]; listed as spot B", "value": 5.5}
    ]},
    {"molecule": "secreted unhypusinated eIF5: unhypusinated form of secreted eIF5A from RCP, spot A′", "values": [
      {"measurement": "isoelectric point", "setting": "[1]", "value": "approx. 5.3"},
      {"measurement": "isoelectric point", "setting": "[1]; listed as spot A′", "value": 5.3}
    ]},
    {"molecule": "COC(=O)C[C@H](NC(=O)[C@H](C)NC(=O)[C@@H](NC(=O)OCc1ccccc1)C(C)C)C(=O)CF", "note": "[Z-VAD.fmk] (Cbz-Val-Ala-Asp(OMe)-CH2F)", "values": [
      {"measurement": "inhibition of apoptosis induction by recombinant eIF5A (RCP)", "setting": "[3]", "value": "~70", "unit": "%"}
    ]},
    {"molecule": "secreted hypusinated eIF5A: hypusinated form of secreted eIF5A from RCP, spot B′", "values": [
      {"measurement": "isoelectric point", "setting": "[1]", "value": "approx. 5.4"},
      {"measurement": "isoelectric point", "setting": "[1]; listed as spot B′", "value": 5.4}
    ]}
  ]
}
